Bridge positions count the residues as written; N and C are the ends. Ends that are not written are not given here. COCH2 = acetyl group that carries the bridge
Each binder was assayed against T1, Recombinant Human FGFR2 alpha (IIIc) Fc Chimera Protein, CF (R&D systems, 712-FR-050) (human, UniProt P21802 22-377) (assay: ELISA on plate-bound FGFR2-Fc).
T1 construct: bought; not shown: Fc part of the chimera
Outline: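 Peptide binding scored by category from dose-response of background-corrected luminescence (FGFR-coated minus uncoated wells). Detection via anti-Myc antibody (2 h, room temperature) after 3 h peptide incubation on wells coated with 5 ng FGFR2 alpha (IIIc)-Fc.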

T1 sequence (P21802 22-377, change not shown): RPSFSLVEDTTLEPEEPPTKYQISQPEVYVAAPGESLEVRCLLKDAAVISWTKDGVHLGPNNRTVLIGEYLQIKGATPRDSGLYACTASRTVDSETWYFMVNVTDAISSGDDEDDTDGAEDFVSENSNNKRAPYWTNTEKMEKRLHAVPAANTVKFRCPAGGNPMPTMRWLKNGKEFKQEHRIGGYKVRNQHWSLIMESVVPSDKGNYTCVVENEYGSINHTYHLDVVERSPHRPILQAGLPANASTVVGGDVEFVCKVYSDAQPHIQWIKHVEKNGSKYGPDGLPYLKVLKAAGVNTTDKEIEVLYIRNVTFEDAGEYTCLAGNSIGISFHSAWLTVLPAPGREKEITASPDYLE

Row | Binder | ELISA luminescence signal at 10 nmol/L peptide, relative to SEQ ID NO: 47 (=1) [ratio]
1 | YCEENYLDPFQYQYFIYFK(COCH2)Y (thioether 2-19 (inferred)) [cyclic peptide SEQ ID NO: 241] | ≥ 0.7
2 | YCEENYLDPSQYQYFIYFK(COCH2)Y (thioether 2-19 (inferred)) [cyclic peptide SEQ ID NO: 246] | ≥ 0.7
3 | YCEENYLDPEQFQYFIYFK(COCH2)Y (thioether 2-19 (inferred)) [cyclic peptide SEQ ID NO: 254] | ≥ 0.7
4 | YCEENYLDPTQYQYFIYFK(COCH2)Y (thioether 2-19 (inferred)) [cyclic peptide SEQ ID NO: 247] | ≥ 0.7
5 | YCEENYLDPEQIQYFIYFK(COCH2)Y (thioether 2-19 (inferred)) [cyclic peptide SEQ ID NO: 253] | 0.1 to 0.5
6 | YCEENYLDPEQWQYFIYFK(COCH2)Y (thioether 2-19 (inferred)) [cyclic peptide SEQ ID NO: 255] | ≥ 0.7
7 | YCEENYLDPQQYQYFIYFK(COCH2)Y (thioether 2-19 (inferred)) [cyclic peptide SEQ ID NO: 245] | ≥ 0.7
8 | YCEENYLDPNQYQYFIYFK(COCH2)Y (thioether 2-19 (inferred)) [cyclic peptide SEQ ID NO: 244] | ≥ 0.7
9 | YCEENYLDPEQYFYFIYFK(COCH2)Y (thioether 2-19 (inferred)) [cyclic peptide SEQ ID NO: 261] | 0.5 to 0.7
10 | YCEENYLDPEQYGYFIYFK(COCH2)Y (thioether 2-19 (inferred)) [cyclic peptide SEQ ID NO: 257] | ≥ 0.7
11 | YCEENYLDPEQYWYFIYFK(COCH2)Y (thioether 2-19 (inferred)) [cyclic peptide SEQ ID NO: 263] | ≥ 0.7
12 | YCEENYLDPWQYQYFIYFK(COCH2)Y (thioether 2-19 (inferred)) [cyclic peptide SEQ ID NO: 243] | ≥ 0.7
13 | YCEENYLDPEQYRYFIYFK(COCH2)Y (thioether 2-19 (inferred)) [cyclic peptide SEQ ID NO: 269] | ≥ 0.7
14 | YCEENYLDPHQYQYFIYFK(COCH2)Y (thioether 2-19 (inferred)) [cyclic peptide SEQ ID NO: 250] | ≥ 0.7
15 | YCEENYLDPEQYLYFIYFK(COCH2)Y (thioether 2-19 (inferred)) [cyclic peptide SEQ ID NO: 258] | ≥ 0.7
16 | YCEENYLDPEQYYYFIYFK(COCH2)Y (thioether 2-19 (inferred)) [cyclic peptide SEQ ID NO: 262] | ≥ 0.7
17 | YCEENYLDPEQYIYFIYFK(COCH2)Y (thioether 2-19 (inferred)) [cyclic peptide SEQ ID NO: 259] | ≥ 0.7
18 | YCEENYLDPEQYTYFIYFK(COCH2)Y (thioether 2-19 (inferred)) [cyclic peptide SEQ ID NO: 266] | ≥ 0.7
19 | YCEENYLDPRQYQYFIYFK(COCH2)Y (thioether 2-19 (inferred)) [cyclic peptide SEQ ID NO: 249] | ≥ 0.7
20 | YCEENYLDPEQYEYFIYFK(COCH2)Y (thioether 2-19 (inferred)) [cyclic peptide SEQ ID NO: 268] | ≥ 0.7
21 | YCEENYLDPEQYSYFIYFK(COCH2)Y (thioether 2-19 (inferred)) [cyclic peptide SEQ ID NO: 265] | ≥ 0.7
22 | YCEENYLDPEHYQYFIYFK(COCH2)Y (thioether 2-19 (inferred)) [cyclic peptide SEQ ID NO: 251] | 0.1 to 0.5
23 | YCEENYLDPEQYNYFIYFK(COCH2)Y (thioether 2-19 (inferred)) [cyclic peptide SEQ ID NO: 264] | ≥ 0.7
24 | YCEENYLDPEQYVYFIYFK(COCH2)Y (thioether 2-19 (inferred)) [cyclic peptide SEQ ID NO: 260] | ≥ 0.7
25 | YCEENYLDPYQYQYFIYFK(COCH2)Y (thioether 2-19 (inferred)) [cyclic peptide SEQ ID NO: 242] | ≥ 0.7
26 | YCEENYLDPEQHQYFIYFK(COCH2)Y (thioether 2-19 (inferred)) [cyclic peptide SEQ ID NO: 256] | ≥ 0.7
27 | YCEENYLDPEQLQYFIYFK(COCH2)Y (thioether 2-19 (inferred)) [cyclic peptide SEQ ID NO: 252] | 0.1 to 0.5
28 | YCEENYLDPEQYDYFIYFK(COCH2)Y (thioether 2-19 (inferred)) [cyclic peptide SEQ ID NO: 267] | ≥ 0.7
29 | YCEENYLDPEQYHYFIYFK(COCH2)Y (thioether 2-19 (inferred)) [cyclic peptide SEQ ID NO: 270] | ≥ 0.7
30 | YCEENYLDPDQYQYFIYFK(COCH2)Y (thioether 2-19 (inferred)) [cyclic peptide SEQ ID NO: 248] | ≥ 0.7

Continued, values first:

Row | ELISA luminescence signal at 10 nmol/L peptide, relative to SEQ ID NO: 47 (=1) [ratio] | Binder
31 | 0.1 to 0.5 | YCEENYLDPEQYQHFIYFK(COCH2)Y (thioether 2-19 (inferred)) [cyclic peptide SEQ ID NO: 274]
32 | ≥ 0.7 | YCEENYLDPEQYQYFWYFK(COCH2)Y (thioether 2-19 (inferred)) [cyclic peptide SEQ ID NO: 282]
33 | ≥ 0.7 | YCEENYLDPEQYQYFVYFK(COCH2)Y (thioether 2-19 (inferred)) [cyclic peptide SEQ ID NO: 279]
34 | ≥ 0.7 | YCEENYLDPEQYQYLIYFK(COCH2)Y (thioether 2-19 (inferred)) [cyclic peptide SEQ ID NO: 275]
35 | ≥ 0.7 | YCEENYLDPEQYQYFQYFK(COCH2)Y (thioether 2-19 (inferred)) [cyclic peptide SEQ ID NO: 284]
36 | 0.1 to 0.5 | YCEENYLDPEQYQNFIYFK(COCH2)Y (thioether 2-19 (inferred)) [cyclic peptide SEQ ID NO: 273]
37 | 0.1 to 0.5 | YCEENYLDPEQYQYFGYFK(COCH2)Y (thioether 2-19 (inferred)) [cyclic peptide SEQ ID NO: 277]
38 | ≥ 0.7 | YCEENYLDPEQYQYFYYFK(COCH2)Y (thioether 2-19 (inferred)) [cyclic peptide SEQ ID NO: 281]
39 | ≥ 0.7 | YCEENYLDPEQYQYFFYFK(COCH2)Y (thioether 2-19 (inferred)) [cyclic peptide SEQ ID NO: 280]
40 | ≥ 0.7 | YCEENYLDPEQYQFFIYFK(COCH2)Y (thioether 2-19 (inferred)) [cyclic peptide SEQ ID NO: 272]
41 | ≥ 0.7 | YCEENYLDPEQYQYFNYFK(COCH2)Y (thioether 2-19 (inferred)) [cyclic peptide SEQ ID NO: 283]
42 | 0.5 to 0.7 | YCEENYLDPEQYQYYIYFK(COCH2)Y (thioether 2-19 (inferred)) [cyclic peptide SEQ ID NO: 276]
43 | ≥ 0.7 | YCEENYLDPEQYQYFLYFK(COCH2)Y (thioether 2-19 (inferred)) [cyclic peptide SEQ ID NO: 278]
44 | 0.1 to 0.5 | YCEENYLDPEQYQIFIYFK(COCH2)Y (thioether 2-19 (inferred)) [cyclic peptide SEQ ID NO: 271]

Reference: US20260008815A1, “CYCLIC PEPTIDE OR SALT THEREOF, AND USES THEREOF” (FUJIFILM Corporation, priority 2023, published 2026)
